In article PMC5928759, “D-Serine Metabolism and Its Importance in Development of Dictyostelium discoideum” (Frontiers in Microbiology, 2018):

Key:
[1] = target: T1, D-amino acid oxidase (DAO; DDB0238432 protein) (Dictyostelium discoideum, UniProt Q556W1); test: UV-visible spectrum of purified enzyme; type: binding; settings: oxidized flavin, maxima around 360 and 450 nm; FAD in storage buffer
T1 construct: gene ddo-1; cDNA from EST clone in pET15b, N-terminal 6-His tag, expressed in E. coli Rosetta (DE3), Ni-NTA purified

purified protein [2] = substrate: N[C@H](CO)C(=O)O; test: purified protein; settings: oxidative deamination, 50 mM Tris-HCl pH 8.5, 20 μM FAD
purified protein [3] = substrate: C[C@@H](N)C(=O)O; test: purified protein; settings: oxidative deamination, 50 mM Tris-HCl pH 8.5, 20 μM FAD

| Molecule | UV-visible spectrum of purified enzyme [1] | Km (purified protein [2]) [mM] | kcat (purified protein [2]) [s⁻¹] | kcat/Km (purified protein [2]) [M⁻¹ s⁻¹] | Km (purified protein [3]) [mM] | kcat (purified protein [3]) [s⁻¹] | kcat/Km (purified protein [3]) [M⁻¹ s⁻¹] |
| --- | --- | --- | --- | --- | --- | --- | --- |
| Cc1cc2nc3c(=O)[nH]c(=O)nc-3n(C[C@H](O)[C@H](O)[C@H](O)COP(=O)(O)OP(=O)(O)OC[C@H]3O[C@@H](n4cnc5c(N)ncnc54)[C@H](O)[C@@H]3O)c2cc1C [FAD] | indicating that it possesses an oxidized form of the flavin cofactor | – | – | – | – | – | – |
| D-amino acid oxidase (DAO; DDB0238432 protein) (Dictyostelium discoideum) (protein) MNQNKNNNNKNPKINLLIIGCGCIGLSTGIIALKSGNYKSVSIWAKDLPPNTTSNKAAALWYPFLCNPLDLVGKWSAETMQYYKDHIINDPKSGTITKKVNEIFRRPHPEDPEWKPYIKSFRRARKDELPDGYVDGYAIDDGFVMDTDMYMDYLVDQFKSLGGIIEQRHLVDIREAFVDHDVVVNCTGLGSRELFNDRTIYPGRGQIIVIKNSTDRSIMDEEDHIAYVIPRLTNTVLGGTNQEHDYNTNPTKKDTEEILKRVAMISPRFAKNRIEIQGVKVGLRPARHEIRLENEFFEGGSKLVVHNYGHGGSGFTVSWGCAIEAIKLVDQGLPKLLHFNKLISKL | – | 6.1 ± 0.78 | 0.05 | 10 | 0.78 ± 0.05 | 0.53 | 680 |
